The text below walks through data of patent US20240272170A1 (QUANTUM SI, published 2024).

The target of assay [1] is VA Peptide (fluorescence polarization) (FITC on the C-terminal lysine). Nature of the assay: fluorescence polarization, FITC peptide titrated with protein. (In general: In fluorescence polarisation assays a small probe gives low polarisation when free and higher when bound to something large.)
The target in assay [2] is T1, AA Peptide (fluorescence polarization), AAKLDEESILKQ{LYS(FITC)}.
T1 peptide: AAKLDEESILKQK(FITC)
The description is as above.

The target of assay [3] is T2, AA peptide (Octet assay of PS557 variants).
T2 construct: Peptide coated on the Octet sensor
The assay can be described thus: Octet (BLI), peptide on sensor, response after 200 s association. An excerpt: (§1) In the high-throughput assay, Octet sensors are coated with the peptide of interest and dipped in buffer containing the purified protein. […] Studying the on and off-rate can also give insight into the mechanism of binding.
In general terms: BLI is a label-free optical method that tracks binding on a fibre tip over time.

For assay [4], the target named is T3, VA peptide (Octet assay of PS557 variants).
T3 construct: Peptide coated on the Octet sensor
The description is as above.
Source text: as §1

The target of assay [5] is T4, LA peptide (Octet assay of PS557 variants).
T4 construct: Peptide coated on the Octet sensor
The assay is described as above.
Source text: as §1

The target of assay [6] is T5, MA peptide (Octet assay of PS557 variants).
T5 construct: Peptide coated on the Octet sensor
Described as above.
Source text: as §1

For assay [7], the target named is T6, IA peptide (Octet assay of PS557 variants).
T6 construct: Peptide coated on the Octet sensor
The description is as above.
Source text: as §1

Assay [8] addresses T7, FA peptide (Octet assay of PS557 variants).
T7 construct: Peptide coated on the Octet sensor
Described as above.
Source text: as §1

Assay [9] addresses T8, MA Peptide (fluorescence polarization).
T8 peptide: MAKLDEESILKQK(FITC)
The assay can be described thus: fluorescence polarization, FITC peptide titrated with protein.

The target of assay [10] is T9, LA Peptide (fluorescence polarization).
T9 peptide: LAKLDEESILKQK(FITC)
Described as above.

In assay [11] the target is T5, MA peptide (Octet assay of PS557 …). The assay can be described thus: Octet (BLI), peptide on sensor, response after 200 s association. The text has this: (§2) In the high-throughput assay, Octet sensors are coated with the peptide of interest and dipped in buffer containing the purified protein. An approximation of relative binding can be obtained by comparing the response after 200 seconds for each protein. Each protein has approximately the same molecular mass and is used at the same concentration, so ranking the proteins by response level in this assay gives an approximation of which proteins have improved binding. Studying the on and off-rate can also give insight into the mechanism of binding.
This is another data set of the same source.

Assay [12] concerns the target T6, IA peptide (Octet assay of PS557 …). The description is as above.
Source text: as §2
This is another data set of the same source.

In assay [13] the target is T7, FA peptide (Octet assay of PS557 …). The description is as above.
Source text: as §2
This is another data set of the same source.

Assay [14] deals with T10, WA peptide (Octet assay of PS557 variants).
T10 construct: Peptide coated on the Octet sensor
The assay is described as above.
Source text: as §2

The target in assay [15] is T11, YA peptide (Octet assay of PS557 variants).
T11 construct: Peptide coated on the Octet sensor
The description is as above.
Source text: as §2

Assay [16] concerns the target T12, RA peptide (XAKLDEESILKQK-FITC, X = R).
T12 construct: also called peptide with N-terminal arginine
T12 peptide: RAKLDEESILKQK(FITC)
The assay can be described thus: fluorescence polarization titration, 20 C. The method, then:
(§3) Binding affinity was measured by polarization using a labeled peptide. The polarization response and total intensity measurements were carried out at 20° C. on a microplate fluorometer with 480 nm excitation and 530 nm emission. […] Multiple analyses were performed at increasing recognizer concentration at a fixed concentration of a target peptide to obtain a titration curve. An equilibrium polarization response at each concentration was plotted and fit to calculate the KD.
(§4) Fluorescence polarization assays were performed with all candidates, and single point binding responses were measured at a fixed concentration of the binders (FIG. 13A). […] We carried out multiple polarization binding titration analysis at increasing concentration of binder protein, and the Kds were determined from the titration curves (FIG. 13B).

The target in assay [17] is T13, HA peptide (XAKLDEESILKQK-FITC, X = H).
T13 construct: also called peptide with N-terminal histidine
T13 peptide: HAKLDEESILKQK(FITC)
The assay can be described thus: fluorescence polarization titration, 20 C. The method, then: as §3, §4

For assay [18], the target named is T12, RA peptide (XAKLDEESILKQK-FITC, X = R). The assay can be described thus: fluorescence polarization titration, PS621 0-5000 nM. The method, then:
as §3, §4

In assay [19] the target is T14, second R of YRELRLLK (RLLK).
T14 construct: also called parent peptide after cleavage to the second arginine
T14 peptide: RLLK
The assay can be described thus: on-chip single-molecule dynamic sequencing, example traces, time axis 0-600 min.

Assay [20] addresses T15, RA peptide (Octet assay of PS621 variants).
T15 construct: X… with X = R
The assay can be described thus: Octet (BLI), 30 C. The text has this:
(§5) Peptides of the sequence RXKLDEESILKQK (SEQ ID NO: 1076) were also used to evaluate the penultimate residue effect.

The target in assay [21] is T16, RL peptide (Octet assay of PS621 variants).
T16 construct: RXKLDEESILKQK with X = L
T16 peptide: RLKLDEESILKQK
The assay can be described thus: Octet (BLI), 30 C.
Source text: as §5

Assay [22] concerns the target T17, RE peptide (Octet assay of PS621 variants).
T17 construct: RXKLDEESILKQK with X = E
T17 peptide: REKLDEESILKQK
The assay can be described thus: Octet (BLI), 30 C.
Source text: as §5

In assay [23] the target is T18, RQ peptide (Octet assay of PS621 variants).
T18 construct: RX… with X = Q
Nature of the assay: Octet (BLI), 30 C.
Source text: as §5

Assay [24] concerns the target T19, RS peptide (Octet assay of PS621 variants).
T19 construct: RXKLDEESILKQK with X = S
T19 peptide: RSKLDEESILKQK
The assay can be described thus: Octet (BLI), 30 C.
Source text: as §5

Assay [25] addresses T20, RR peptide (Octet assay of PS621 variants).
T20 construct: RX… with X = R
The assay can be described thus: Octet (BLI), 30 C.
Source text: as §5

The target in assay [26] is T21, RF peptide (Octet assay of PS621 variants).
T21 construct: RX… with X = F
The assay can be described thus: Octet (BLI), 30 C.
Source text: as §5

Assay [27] addresses T22, HA peptide (Octet assay of PS621 variants).
T22 construct: XAKLDEESILKQK with X = H
T22 peptide: HAKLDEESILKQK
Nature of the assay: Octet (BLI), 30 C.

In assay [28] the target is T23, KA peptide (Octet assay of PS621 variants).
T23 construct: XAKLDEESILKQK with X = K
T23 peptide: KAKLDEESILKQK
The assay can be described thus: Octet (BLI), 30 C.

Residue numbers refer to the chain shown, from its start. Names may count otherwise. Read-outs that look alike come from different tables or passages of the source. No end group written: not given here. *: point of attachment. FITC = O=C1OC2(c3ccc(O)cc3Oc3cc(O)ccc32)c2ccc(NC(=S)*)cc21

B1: PS769 (designed binder)
chain: MPTAASATESAIEDTPAPARPEVDGRTKPKRQPRYHVVLWDDDDHTYQYVVVMLQSLFGHPPERGYRLAKEVDTQGRVIVLTTTREHAELKRDQIHAFGYDRLLARSKGSMKASIEAEE
notes: Variant of PS557; also called N41D
Consider B1, for which the dissociation constant (Kd) was 276 nM in assay [1] and 8700 nM in [2].

B2: PS962 (designed binder)
chain: B1 chain with Q55R, P62Y, E63A, V72M, Y100R
notes: Variant of PS557
In the case of B2, the Octet response in assay [3] was 3.76 nm; in [4] it was 10.7 nm; in assay [5], 10.5 nm; in assay [6] it was 8.37 nm; in assay [7], 10.7 nm; in assay [8] it was 2.57 nm.

B3: PS963 (designed binder)
chain: B1 chain with Q55R, E63A, V72M, Y100R
notes: Variant of PS557
Regarding B3, the Octet response was determined as 4.06 nm in assay [3]; 10.4 nm in assay [4]; 9.65 nm in assay [5]; 8.4 nm in assay [6]; 10.2 nm in [7]; 2.25 nm in assay [8].

B4: PS960 (designed binder)
chain: B1 chain with Q55R, H60I, V72M
notes: Variant of PS557
Turning to B4, the Octet response in [3] was 1.68 nm; in [4] it was 9.29 nm; in assay [5], 10.5 nm; in [6], 6.86 nm; in assay [7] it was 9.98 nm; in [8] it was 0.0851 nm.

B5: PS816 (designed binder)
chain: B1 chain with V72M
notes: Variant of PS557; also called N41D, V72M
Turning to B5, the Kd in assay [1] was determined as 266 nM; in [2], 7590 nM; in [9], 805 nM.

B6: PS824 (designed binder)
chain: B1 chain with I12F, Q55R, V72M
notes: Variant of PS557
B6: the Kd stood at 10 nM in assay [10], 205 nM in assay [1], 6770 nM in [2] and 648 nM in [9]. Besides, the Octet response in [11] was found to be 9.5 nm; in assay [12], 13.5 nm; in assay [13], 0.673 nm; in assay [14] it was 0.165 nm; in assay [15], 1.31 nm.

B7: PS857 (designed binder)
chain: B1 chain with L68M, V72M
notes: Variant of PS557; also called N41D, V72M, L68M
With B7, the equilibrium dissociation constant (Kd) was 7 nM in [10], 487 nM in assay [1], 15000 nM in assay [2] and 746 nM in assay [9].

B8: PS852 (designed binder)
chain: B1 chain with R31H, Q55R, V72M
notes: Variant of PS557
Take B8: the Kd in [10] was found to be 19 nM; in assay [1] it was 142 nM; in assay [2] it was 5140 nM; in assay [9], 1140 nM. Besides, the Octet response was 5.48 nm in assay [11]; 9.38 nm in assay [12]; 0.102 nm in assay [13]; 0.0292 nm in [14]; 0.177 nm in [15].

B9: PS961 (designed binder)
chain: B1 chain with Q55R, E63S, L68M, V72M, Y100R
notes: Variant of PS557; also called N41D, V72M, Q55R, E63S, L68M, Y100R
For B9, the dissociation constant (Kd) was 3300 nM in assay [2] and 143 nM in [9]. For the same molecule, the Octet response in assay [3] worked out at 4.87 nm; in [4] it was 11.3 nm; in [5], 11.8 nm; in [6], 9.26 nm; in assay [7], 11.5 nm; in [8] it was 2.05 nm.

B10: PS621 (other)
chain: MHSKFSHAGRICGAKFKVGEPIYRCKECSFDDTCVLCVNCFNPKDHTGHHVYTTICTEFNNGICDCGDKEAWNHTLFCKAEEG
notes: tag of the assay construct not specified; also called UBR protein from Kluyveromyces marxianus
Regarding B10, the Kd in [16] is 475 nM; in [17] it was 6770 nM; in assay [18], 475 nM. Also, the binding result in [19] is “binds”.

B11: PS1102 (designed binder)
chain: B10 chain with S29Q
notes: Variant of PS621
Regarding B11, the Octet response in [20] turned out to be 8.6; in assay [21] it was 10.4; in assay [22], 6.6; in [23], 9.3; in assay [24], 8.5; in [25], 7. Besides, the Octet response came to 9.3 in assay [26], 2.5 in assay [27] and 6.6 in [28]. For the same molecule, the equilibrium dissociation constant (Kd) in [16] was found to be 638 nM.

B12: PS1120 (designed binder)
chain: B10 chain with T54K
notes: Variant of PS621
With B12, the Octet response in assay [20] turned out to be 9.9; in assay [21] it was 11.7; in [22], 8.8; in assay [23], 9.5; in [24] it was 8.3; in assay [25], 5.9. For the same molecule, the Octet response is 10.2 in assay [26], 1.7 in assay [27] and 5.5 in [28].

B13: PS1101 (designed binder)
chain: B10 chain with G19R
notes: Variant of PS621
As for B13, the Octet response was 6.5 in assay [20]; 7.7 in assay [21]; 1.9 in assay [22]; 4.7 in assay [23]; 4.3 in assay [24]; 2.8 in assay [25]. The Octet response worked out at 6 in assay [26] and 1.4 in assay [28]. Moreover, in [16], the Kd came to 1550 nM.

The term Kd denotes a measure of binding affinity in units of concentration.
